{"source": "paper PMC8041770", "about": "(2021)", "binders": {"B1": {"name": "yeast-displayed eLIFR CBM I–Ig-like–CBM II domains (designed binder)", "chain": "QKKGAPHDLKCVTNNLQVWNCSWKAPSGTGRGTDYEVCIENRSRSCYQLEKTSIKIPALSHGDYEITINSLHDFGSSTSKFTLNEQNVSLIPDTPEILNLSADFSTSTLYLKWNDRGSVFPHRSNVIWEIKVLRKESMELVKLVTHNTTLNGKDTLHHWSWASDMPLECAIHFVEIRCYIDNLHFSGLEEWSDWSPVKNISWIPDSQTKVFPQDKVVPVGSDITFCCVSQEKVLSALIGRTNCPLIHLDGENVAIKVRNVSASASSGTNVVFITEDDIFGTVIFAGYPPDTPQQLNCETHDLKEIICSWNPGRVTALVGPRATSYTLVESFSGKYVRLKRAEAPTNESYQLLFQMLPNQEIYNFTLNAHNPLGRSQSTILVNITEKVYPHTPTSFKVKDINSTAVKLSWHLPGNFAKINFLCEIEIKKSNSVQEQRNVTIKGVENSSYLVALDKLNPYTLYTFRIRCSTETFWKWSKWSNKKQHLTTEAS"}}, "target": "recombinant human LIF, histidine-tagged (hLIF-His) (human, UniProt P15018 23-202)", "sequence (P15018 23-202)": "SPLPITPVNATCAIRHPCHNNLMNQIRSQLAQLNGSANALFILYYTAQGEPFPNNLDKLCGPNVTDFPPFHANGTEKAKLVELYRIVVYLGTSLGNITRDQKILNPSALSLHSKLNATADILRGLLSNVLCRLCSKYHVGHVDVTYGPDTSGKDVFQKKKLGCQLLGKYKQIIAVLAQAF", "test": "FACS"}
{"binder": "B1", "values": [{"measurement": "Kd", "value": 0.014, "unit": "nM"}]}
